Kd data for 1 substance are collected here from publication PMC10439073.

pKd: −log10 of the molar value.

Some targets named below: BAT1706 (human); US-bevacizumab (human); EU-bevacizumab (human).
Common to all, as to assay: SPR
A general note: Surface plasmon resonance follows binding to a sensor surface in real time, without labels.

As a reminder, the pKd is −log10 of the Kd, conventionally taken in molar units. With “FcγRIIIa-158F (from UniProt P08637 17-208) (receptor)”, the pKd with BAT1706 (human) was 6.11; with US-bevacizumab (human) it was 6.01; in the assay with EU-bevacizumab (human) it was 6.02.
